{"source": "patent EP1314779B1", "key": {"[1]": {"biological_target": "proEGF on the surface of NCI-H292 cell membranes (human) (UniProt P01133)", "sequence (P01133 23-1207)": "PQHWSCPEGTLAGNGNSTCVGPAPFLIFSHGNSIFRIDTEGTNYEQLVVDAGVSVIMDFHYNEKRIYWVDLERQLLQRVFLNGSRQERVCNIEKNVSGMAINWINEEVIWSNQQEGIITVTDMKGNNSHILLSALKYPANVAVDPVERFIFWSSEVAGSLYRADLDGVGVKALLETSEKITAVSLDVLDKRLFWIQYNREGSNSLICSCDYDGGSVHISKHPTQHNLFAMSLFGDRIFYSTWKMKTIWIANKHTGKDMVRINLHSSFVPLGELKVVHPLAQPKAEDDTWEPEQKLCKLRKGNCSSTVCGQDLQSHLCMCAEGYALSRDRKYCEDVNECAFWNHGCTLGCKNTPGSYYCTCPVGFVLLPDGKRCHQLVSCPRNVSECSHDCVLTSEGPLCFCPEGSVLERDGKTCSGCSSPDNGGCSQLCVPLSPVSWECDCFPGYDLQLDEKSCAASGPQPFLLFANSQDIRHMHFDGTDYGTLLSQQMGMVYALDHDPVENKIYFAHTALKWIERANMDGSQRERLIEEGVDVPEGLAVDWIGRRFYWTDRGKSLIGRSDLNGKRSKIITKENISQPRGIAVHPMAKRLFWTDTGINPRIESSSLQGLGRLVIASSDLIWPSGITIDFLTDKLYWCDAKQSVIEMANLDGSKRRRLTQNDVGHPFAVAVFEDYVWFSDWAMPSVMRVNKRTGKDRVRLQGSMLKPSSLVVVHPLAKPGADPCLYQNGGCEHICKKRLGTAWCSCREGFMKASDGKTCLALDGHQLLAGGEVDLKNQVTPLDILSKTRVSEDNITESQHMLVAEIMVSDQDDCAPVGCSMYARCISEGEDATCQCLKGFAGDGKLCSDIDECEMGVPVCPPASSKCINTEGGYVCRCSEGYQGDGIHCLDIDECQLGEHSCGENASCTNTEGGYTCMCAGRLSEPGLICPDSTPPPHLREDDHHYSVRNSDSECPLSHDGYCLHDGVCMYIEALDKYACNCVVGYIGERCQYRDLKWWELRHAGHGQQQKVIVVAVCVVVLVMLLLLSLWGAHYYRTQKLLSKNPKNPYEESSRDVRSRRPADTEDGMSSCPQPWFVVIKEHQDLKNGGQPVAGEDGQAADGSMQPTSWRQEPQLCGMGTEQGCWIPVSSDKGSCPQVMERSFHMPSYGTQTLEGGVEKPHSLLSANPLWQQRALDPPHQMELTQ", "test": "flow cytometry on NCI-H292 cells, background staining with normal mouse IgG1"}, "[2]": {"biological_target": "proEGF on the surface of NCI-H292 cell membranes (human) (UniProt P01133)", "test": "flow cytometry on NCI-H292 cells, background staining with normal mouse IgG1", "remark": "listed apart in the source"}}, "note": "Like-named read-outs stand apart in the source and are kept apart here."}
{"substance": "normal mouse IgG1 (produced by R&D Corp.) (antibody)", "values": [{"measurement": "average fluorescence intensity", "setting": "[1]", "result": 4.62}, {"measurement": "average fluorescence intensity", "setting": "[2]", "result": 8.44}]}
